From the supplement of paper PMC9112550, “Optimization of the antimicrobial peptide Bac7 by deep mutational scanning” (BMC Biology, 2022)

These sequences were tested on Escherichia coli TOP10 (assay: shrunken log2 fold change of peptide-encoding DNA abundance (4.5 h post-induction vs induction); higher = less antimicrobial activity (less host growth inhibition)). Conditions: time post-induction: 4.5 h; library: site-saturation at positions 5, 18, 19, 20.
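Also: peptides expressed intracellularly from a pBAD plasmid library in pooled LB shake-flask culture, induced with 0.3% L-arabinose, DNA abundance read by NGS, three biological replicates, DESeq2 with apeglm shrinkage.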

Going from RRIRPRPPRLPRPRPRPNQEPRP to RRIRPRPPRLPRPRPRPWDTPRP, the “shrunken log2 fold change” value falls from 0.0875 to -0.743.

Compared with RRIRTRPPRLPRPRPRPYESPRP, RRIRKRPPRLPRPRPRPTRMPRP is higher in “shrunken log2 fold change” value: -0.00247 for the first, 0.651 for the second.

First: RRIRMRPPRLPRPRPRPIMEPRP
Second: RRIRMRPPRLPRPRPRPPSYPRP
The “shrunken log2 fold change” value of the first is lower: -0.00133 for the first, 0.358 for the second.

Compared with RRIRSRPPRLPRPRPRPYQLPRP, RRIRERPPRLPRPRPRPFLRPRP is lower in “shrunken log2 fold change” value: -0.149 for the first, -0.401 for the second.

Going from RRIRHRPPRLPRPRPRPVPRPRP to RRIRIRPPRLPRPRPRPDQRPRP, the “shrunken log2 fold change” value falls from 0.429 to 0.0228.

First: RRIRHRPPRLPRPRPRPRTQPRP
Second: RRIRIRPPRLPRPRPRPNFSPRP
The “shrunken log2 fold change” value of the first is higher: 0.0696 for the first, -0.26 for the second.

RRIRERPPRLPRPRPRPISQPRP and RRIRSRPPRLPRPRPRPCVRPRP are within 0.2 log units of each other in “shrunken log2 fold change” value: -0.058 for the first, -0.103 for the second.

First: RRIRERPPRLPRPRPRPSWAPRP
Second: RRIRYRPPRLPRPRPRPDPSPRP
The “shrunken log2 fold change” value of the first is higher: -0.24 for the first, -0.566 for the second.

Going from RRIRSRPPRLPRPRPRPVEQPRP to RRIRPRPPRLPRPRPRPAQSPRP, the “shrunken log2 fold change” value rises from -0.0605 to 0.448.

First: RRIRKRPPRLPRPRPRPTCAPRP
Second: RRIRPRPPRLPRPRPRPLNLPRP
The “shrunken log2 fold change” value of the first is higher: 0.786 for the first, 0.177 for the second.

Compared with RRIRNRPPRLPRPRPRPSSKPRP, RRIRYRPPRLPRPRPRPVGRPRP is higher in “shrunken log2 fold change” value: -0.244 for the first, 0.0286 for the second.

First: RRIRNRPPRLPRPRPRPRDLPRP
Second: RRIRARPPRLPRPRPRPNSKPRP
The “shrunken log2 fold change” value of the first is higher: 0.186 for the first, -0.155 for the second.

Going from RRIRVRPPRLPRPRPRPSLVPRP to RRIRVRPPRLPRPRPRPQGDPRP, the “shrunken log2 fold change” value falls from 0.974 to -0.0558.

Compared with RRIRRRPPRLPRPRPRPIIPPRP, RRIRQRPPRLPRPRPRPVCWPRP is higher in “shrunken log2 fold change” value: -0.36 for the first, 0.279 for the second.

Going from RRIRVRPPRLPRPRPRPWVIPRP to RRIRSRPPRLPRPRPRPDHIPRP, the “shrunken log2 fold change” value rises from -0.43 to -0.119.

RRIRVRPPRLPRPRPRPVPVPRP and RRIRDRPPRLPRPRPRPSCQPRP are within 0.2 log units of each other in “shrunken log2 fold change” value: 0.0573 for the first, 0.17 for the second.

First: RRIRMRPPRLPRPRPRPLDAPRP
Second: RRIRPRPPRLPRPRPRPCACPRP
The “shrunken log2 fold change” value of the first is higher: 1.74 for the first, -0.129 for the second.

RRIRLRPPRLPRPRPRPMSHPRP and RRIRNRPPRLPRPRPRPHKKPRP are within 0.2 log units of each other in “shrunken log2 fold change” value: 0.0207 for the first, -0.00756 for the second.

Compared with RRIRMRPPRLPRPRPRPTRQPRP, RRIRQRPPRLPRPRPRPDDPPRP is lower in “shrunken log2 fold change” value: 0.886 for the first, -0.0062 for the second.

RRIRNRPPRLPRPRPRPFGSPRP and RRIRVRPPRLPRPRPRPDGIPRP are within 0.2 log units of each other in “shrunken log2 fold change” value: -0.0105 for the first, -0.173 for the second.

RRIRHRPPRLPRPRPRPAKYPRP and RRIRKRPPRLPRPRPRPCFGPRP are within 0.2 log units of each other in “shrunken log2 fold change” value: 0.136 for the first, 0.194 for the second.

First: RRIRDRPPRLPRPRPRPFAEPRP
Second: RRIRARPPRLPRPRPRPYKNPRP
The “shrunken log2 fold change” value of the first is higher: 0.242 for the first, -0.524 for the second.

Going from RRIRWRPPRLPRPRPRPWQHPRP to RRIRRRPPRLPRPRPRPTRSPRP, the “shrunken log2 fold change” value rises from -0.0883 to 0.341.

RRIRCRPPRLPRPRPRPSHDPRP and RRIRKRPPRLPRPRPRPVNCPRP are within 0.2 log units of each other in “shrunken log2 fold change” value: -0.235 for the first, -0.112 for the second.

Going from RRIRSRPPRLPRPRPRPAVDPRP to RRIRARPPRLPRPRPRPRMWPRP, the “shrunken log2 fold change” value falls from 0.462 to 0.164.

Compared with RRIRDRPPRLPRPRPRPLYLPRP, RRIRERPPRLPRPRPRPTTCPRP is higher in “shrunken log2 fold change” value: -0.648 for the first, 0.0164 for the second.

Going from RRIRGRPPRLPRPRPRPFREPRP to RRIRFRPPRLPRPRPRPIIQPRP, the “shrunken log2 fold change” value falls from -0.21 to -0.786.

Going from RRIRGRPPRLPRPRPRPQRNPRP to RRIRGRPPRLPRPRPRPWIKPRP, the “shrunken log2 fold change” value falls from 0.473 to -0.0249.

Compared with RRIRYRPPRLPRPRPRPERWPRP, RRIRERPPRLPRPRPRPSQEPRP is lower in “shrunken log2 fold change” value: 0.44 for the first, -0.0844 for the second.

Going from RRIRWRPPRLPRPRPRPNNIPRP to RRIRNRPPRLPRPRPRPFHMPRP, the “shrunken log2 fold change” value rises from -0.779 to -0.458.

Going from RRIRNRPPRLPRPRPRPASSPRP to RRIRMRPPRLPRPRPRPQGKPRP, the “shrunken log2 fold change” value rises from -0.317 to -0.0118.

Compared with RRIRFRPPRLPRPRPRPTLGPRP, RRIRHRPPRLPRPRPRPIEIPRP is lower in “shrunken log2 fold change” value: 0.175 for the first, -0.161 for the second.

First: RRIRQRPPRLPRPRPRPGIIPRP
Second: RRIRKRPPRLPRPRPRPYPWPRP
The “shrunken log2 fold change” value of the first is higher: 0.0277 for the first, -0.4 for the second.

Compared with RRIRTRPPRLPRPRPRPKKNPRP, RRIRGRPPRLPRPRPRPAHEPRP is lower in “shrunken log2 fold change” value: 0.409 for the first, 0.0535 for the second.

RRIRCRPPRLPRPRPRPIKSPRP and RRIRMRPPRLPRPRPRPVYMPRP are within 0.2 log units of each other in “shrunken log2 fold change” value: -0.185 for the first, -0.214 for the second.

Compared with RRIRYRPPRLPRPRPRPLNIPRP, RRIRDRPPRLPRPRPRPTNHPRP is higher in “shrunken log2 fold change” value: -1.1 for the first, -0.247 for the second.

First: RRIRFRPPRLPRPRPRPTFNPRP
Second: RRIRSRPPRLPRPRPRPKPDPRP
The “shrunken log2 fold change” value of the first is lower: -0.279 for the first, 0.22 for the second.

For RRIRGRPPRLPRPRPRPVYYPRP, the “shrunken log2 fold change” value was 0.164.
